Laboratory results as given in patent US20250236667A1, “ANTIBODIES TO MUTANT CALRETICULIN AND USES THEREOF” (CENTRAL ADELAIDE LOCAL HEALTH NETWORK INC, priority 2021, published 2025).

Columns and labels:
Assay type in all cases: cell-based, human
[1] = system: primary CD34+ cells from patients with CALR mutant myelofibrosis; assay: TPO-independent megakaryocyte differentiation in liquid culture
From the text: (§1) Patient samples were collected with informed consent from the South Australian Cancer Research Biobank (SACRB: Adelaide, Australia). Primary CD34+ stem/progenitor cells from peripheral blood samples from patients with JAK2^V617F or CALR mutant myelofibrosis were purified by flow cytometry using CD34-APC antibody, anti-human CD45RA Brilliant Violet 605, anti-CD90 FITC, anti-human CD123-PE, anti-human CD38 PE-Cy7, or with CD34-APC antibody, anti-human CD3 FITC, anti-human CD19-PE (clone H1B19) and anti-human CD14 PE-Cy7.
(§2) For megakaryocyte differentiation assays, CD34+ cells derived from cord blood or from patient peripheral blood mononuclear fractions were plated in Megacult (MegaCult™-C Collagen and Medium with Lipids) with added IL-3 and IL-6 (10 ng/ml) in the presence or absence of 50 ng/mL TPO. Cells were plated at an initial density of 1800 cells/well and cultured for 12 days at 37° C. and 5% CO2. Primary PMF CD34+ cells were cultured in StemCell Pro supplemented with human recombinant SCF (25 ng/mL), IL-6 and IL-9 (10 ng/ml) to allow differentiation into megakaryocytes. CD34+cord blood cells were cultured in 50 ng/mL SCF, 50 ng/ml TPO, 20 ng/ml IL-6 and 20 ng/ml IL-9. Both IgG and 4D7 were added at 20 μg/mL. All cytokines are from Preprotech. Culture media was replenished every 3 days and cells were assessed for megakaryocyte differentiation on day 12 using anti-human CD41/61 PE-Cy7 (Clone A2A9/6) and CountBright beads (Thermo Fisher) to enumerate cell numbers. CD34+obtained from UCB were plated in MethoCult containing cytokines (H4434). Cells were seeded at approximately 100 cells per well and were cultured in the presence of 20 μg/mL 4D7 or control IgG antibody and scored for colony and blast forming units at 12-14 days.

[2] = system: primary CD34+ cells from JAK2 V617F myelofibrosis samples; assay: as above; conditions: 3 out of 3 JAK2 V617F myelofibrosis samples
From the text: as §1, §2

[3] = system: phospho-STAT1,3,5 and phospho-ERK in TF-1 TpoR CALR^del52 cells; assay: Western blot of STAT/ERK signalling; conditions: 10 or 20 μg/mL; 8 hours
Protocol: (§3) A. Cell extracts blotted for phospho-STAT5, total STAT5, phospho-ERK, total ERK and actin from TF-1 TpoR cells after incubation with 10 or 20 μg/mL 4D7 or IgG for 4 or 8 hours, in presence of TPO. The last line indicates TPO withdrawal. B. Similar experiment using TPO-independent TF-1 TpoR CALR^del61 cells. C. Similar experiment using TPO-independent TF-1 TpoR CALR^del52 cells at 8 hours. D. Fraction of apoptotic sub-Go population of TF-1 TpoR CALR^del61 cells after 48 hours of 4D7 or IgG treatment (n=3). E. Western blot showing caspase 3 cleavage occurring within 24 hours of TPO withdrawal in TPO dependent TF-1 TpoR cells. An increase in cleaved caspase 3 is observed after 48 hours of treatment with 20 μg/mL 4D7 in TF-1 TpoR CALR^del61 and TF-1 TpoR CALR^del52 cells. F. Western blot of TpoR immunoprecipitation under non-reducing conditions showing associated CALR 50 kDa monomers and 100 kDa dimers (arrowheads) present only in TF-1 TpoR CALR^del61 disrupted by 8 hour treatment with 20 μg/mL 4D7 but not PBS or 20 μg/mL IgG. CALR monomers & dimers are detectable by polyclonal anti-wild type CALR or anti-mutant CALR monoclonal antibodies. Arrowheads, detected mutant CALR protein: asterisk, non-specific bands. G. Proposed model for the mechanism of action of 4D7 on mutant CALR. In the active form, mutant CALR dimers bound to TpoR form a constitutively activate receptor complex which is disrupted by 4D7 with blockade in STAT and ERK signalling. (Adapted from Masubuchi et al. (2020), Rivera et al (2021)). […]
(§4) A. Cell extracts blotted for phospho-STAT1, total STAT1, phospho-STAT3, total STAT3 and actin from TF-1 TpoR cells after incubation with 10 or 20 μg/mL 4D7 or IgG for 4 or 8 hours as indicated. […] Cells were harvested and fixed and stained with propidium iodide and their DNA contents were analysed. […] E. Western blot showing specific co-immunoprecipitation of mutant CALR^del61 cells with TpoR anti-FLAG antibody under reducing conditions detected by total and mutant specific CALR antibodies. Arrowheads represent detected CALR protein. […]

[4] = system: phospho-STAT1,3,5 and phospho-ERK in TF-1 TpoR CALR^del61 cells; assay: Western blot of STAT/ERK signalling; conditions: 10 or 20 μg/mL; 4 and 8 hours
Protocol: as §3, §4

B1: 4D7: rat monoclonal IgG2a antibody against the mutant CALR neoepitope; VH SEQ ID NO: 5, VL SEQ ID NO: 7 (antibody, listed as Rattus rattus, V domains shown)
VH: QVQLQQSGAELAKPGSSVKISCKASGYTFTNYDMSWIKQRPGQALEWIGAINPGNGVTDYNEKFRGKATLTVDKSSSTAFMQLSSLTPEDTAVYHCAREYRDNYGYFDYWGQGVMVTVSS
VL: DIVLTQTPVSLSVTLGDQASISCRSSQSLEYSDGYTYLDWFLQKPGQSPQLLIYEVSSRFSGVPDRFIGRGSGTDFTLKISRVEPEDLGVYYCFQATHDPFTFGSGTKLEIK
mean decrease of CD41+ cells across CALR mutant samples ([1]; 20 μg/mL, day 12, normalised to IgG): 55% | inhibition of CD41+ megakaryocytes compared to IgG control ([1]; additional samples in 2 independent patients (Graz), including type 2 CALR (5 base pair insertion)): evidence of inhibition | inhibition of TPO-independent growth of CD41+CD61+ megakaryocyte progenitors ([1]; four out of 5 mutant CALR MF patient samples, 20 μg/mL, 12 days, vs IgG): at least 50% | inhibition of CD41+CD61+ megakaryocyte progenitors ([1]; patient sample with a 34 base pair deletion): weaker inhibition | inhibition of CD41+CD61+ megakaryocyte progenitors [2]: No significant inhibition | constitutive factor-independent phospho-STAT1,3,5 and phospho-ERK [3]: blockade | constitutive factor-independent phospho-STAT1,3,5 and phospho-ERK [4]: blockade
